B1: CAT-213 (antibody, V domains shown)
VH: QVQLVQSGGGVVQPGRSLRLSCAASGFTFSSYGMHWVRQAPGKGLEWVAVISYDGSIKHYADSVKGRFTISRDNSKNTLYLQMNSLRTDDTAVYYCAGDTDYGDIDPWGQGTMVTVSS
VL: DIQMTQSPSSVSASVGDRVTITCRASQDISSWLAWYQQKPGKAPKLLIYAASSLQSGVPSRFSGSGSGTDFTLTISSLQPEDFATYYCQQASSFPSITFGQGTRLEIKR
notes: Expressed in NS0 cells and purified on Protein A
B2: Mouse eotaxin (ligand, UniProt P48298 24-97, looked up)
chain: HPGSIPTSCCFIMTSKKIPNTLLKSYKRITNNRCTLKAIVFKTRLGKEICADPKKKWVQDATKHLDQKLQTPKP
notes: also called murine eotaxin

How the values were obtained:
Human eotaxin [1] = target: T1, Human eotaxin (human, UniProt P51671 24-97, 125-iodine label in the Flash Plate assays; site not given); assay: Flash Plate scintillation competition: soluble CAT-213 against coated CAT-212 (competitor) for [125I]eotaxin; mean of 4 estimates
T1 construct: treated as one molecule; also called eotaxin-1
Procedure: The Flash Plate assay was performed essentially as described in Example 6.

Rhesus monkey eotaxin = Rhesus monkey eotaxin (rhesus monkey, UniProt Q8MIT7 24-97, limits assumed); assay: cell-based or functional assay
Mouse eotaxin = target: B2; assay: cell-based or functional assay
Human eotaxin [2] = target: T1, Human eotaxin; assay: cell-based or functional assay
CAT-212 = target: T2, CAT-212; assay: Flash Plate scintillation competition: unlabelled mouse eotaxin against [125I]eotaxin for coated CAT-212; mean of two estimates
T2 construct: Human scFv; IMAC-purified soluble scFv in the Western blot and Flash Plate assays; FPLC-purified monomeric scFv in the chemotaxis assay
Procedure: Flash Plate™ was prepared as described in Example 6. Eleven serial one in three dilutions of unlabelled human and mouse Eotaxin (R&D) in Assay Buffer and mixed with ¹²⁵I-Eotaxin prepared at an estimated concentration of 30 pM and 100 μl added to the wells in duplicate. The plate was sealed and incubated at room temperature for two hours, counted and the data processed as described in Example 6.

T1 sequence (P51671 24-97 limits assumed): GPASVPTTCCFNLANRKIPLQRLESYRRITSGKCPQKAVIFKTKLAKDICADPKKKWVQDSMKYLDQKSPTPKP
Chain of Rhesus monkey eotaxin (Q8MIT7 24-97 limits assumed): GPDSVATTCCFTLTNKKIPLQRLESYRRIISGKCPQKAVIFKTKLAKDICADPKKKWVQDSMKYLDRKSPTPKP

Binder	IC50 (Human eotaxin [1]) [nM]	geometric mean IC50, inhibition of rhesus monkey eotaxin-mediated chemotaxis of L1.2-CCR3 cells (Rhesus monkey eotaxin) [nM]	geometric mean IC50, inhibition of mouse eotaxin-mediated chemotaxis of L1.2-CCR3 cells (Mouse eotaxin) [nM]	IC50, inhibition of eotaxin-mediated chemotaxis of CCR3-transfected L1.2 cells (Human eotaxin [2]) [nM]	geometric mean IC50, inhibition of eotaxin-evoked shape change of human eosinophils (Human eotaxin [2]) [nM]	geometric mean IC50, inhibition of eotaxin-mediated chemotaxis of human eosinophils (Human eotaxin [2]) [nM]	IC50 (CAT-212) [nM]
B1	0.0593	303	2630	0.7	0.714	1.53	
B2							296

From patent US20020098523A1 (CAMBRIDGE ANTIBODY TECHNOLOGY, published 2002)
